Data published in PMC11767649.

Biological target: rhRKIP C133A mutant, histidine-tagged (human) (UniProt P30086)
Assay: non-reducing SDS-PAGE; purified rhRKIP in sample loading buffer without β-mercaptoethanol or boiling; Coomassie Brilliant Blue staining or anti-His immunoblot

rhRKIP C133A mutant, histidine-tagged (from UniProt P30086 1-187) (natural protein)
stoichiometry N: 2
